Data published in patent US20240392013A1, “IL1RAP ANTIBODIES AND USES THEREOF” (STELEXIS THERAPEUTICS, LLC, priority 2021, published 2024).

Key:
AML patient samples = experiment: Clonogenic capacity of AML patient samples; assay type: cell-based, human; conditions: 333 nM, two weeks
Procedure: AML patient samples or healthy control samples (4000 cells) were washed and resuspended in 30 μl Iscove's Modified Dulbecco's Medium (IMDM) media supplemented with 2% FBS. Cells […] were mixed with 3 ml methylcellulose (MthoCult H4034 Optimum) supplemented with pen/strep or primocin (100 μg/ml) and IL1RAP antibodies (333 nM) and 1 ml were seeded in 35 mm dishes in duplicates. The dishes were incubated at 37° C./5% CO2 in humidified incubator for 14-16 days. Colonies were counted using inverted microscope.

[1] = system: IL33-induced downstream signaling (phospho-ERK, p38, NFκB) in AML patient samples; experiment: IL33 signaling in AML patient samples, Western blot; assay type: cell-based, human; conditions: antibody 20 μg/ml, IL33 100 ng/ml
Procedure: (§1) AML patient samples or cancer cells (AML, chronic myelogenous leukemia (CML), pancreatic, head and neck squamous cell carcinoma (HNSCC), bladder, non-small-cell lung carcinoma (NSCLC), colorectal and triple-negative breast cancer (TNBC)) were seeded in 6-well plates (5×10^5 cells/well) and incubated overnight at 37° C./5% CO2 in humified incubator. In experiments conducted in cancer cell lines, cells were washed 2× with PBS and serum-starved for 3 hours. Following, cells were treated with IL1RAP antibodies at concentration of 20 μg/ml and incubated for 1 h at 37° C./5% CO2 in humidified incubator. After 1 h, cells were treated with IL1β (Invivogen, cat: rcyec-hil1b), IL33 (Adipogen, cat: AG-40B-0160-C010) or IL36 cytokines (R@D, cat: 6836IL) at 100 ng/ml and incubated for 15 more minutes. Cells were harvested on ice after 1× wash with cold PBS and were centrifuged for 5 minutes at 5000 rpm at 4° C. Cells were then lysed with NP-40 buffer for 5 minutes on ice and centrifuged for 15 minutes at 15000 rpm at 4° C. Supernatants were collected and protein concentrations were determined by BCA (Thermofisher, Cat #PI23225). […] After 3× washes, ECL was applied (Thermofisher, Cat #32106) and proteins were detected after exposure to autoradioraphic films (Worldwide medical products, Cat #41101001) and protein intensity was quantitated using ImageJ software.

THP-1 cells = experiment: Jurkat-Lucia NFAT-CD16 ADCC reporter assay against THP-1 cells; assay type: cell-based, human; conditions: THP-1 target cells
Source text: (§2) Methods: ADCC activity is mediated through binding of NK cell's CD16 receptors to the Fc region of antibodies. A Jurkat-Lucia NFAT-CD16 ADCC Reporter cell assay (Invivogen, Cat #jktl-nfat-cd16; https://www.invivogen.com/jurkat-lucia-nfat-adcc-adcp-cells) was used to analyze IL1RAP mAb STLX2012 for ADCC activity. Briefly, the Jurkat cell line was engineered to express the cell surface Fc receptor CD16A (FcγRIIIA) and the Lucia luciferase reporter gene. ADCC is triggered by CD16A cross-linking upon antigen-bound antibody binding at the surface of immune effector cells. Cells are maintained in the presence of zeocin (100 μg/ml) and blasticidin (10 μg/ml).

AML cells (THP-1) = experiment: Expression of differentiation markers in AML cells, flow cytometry; assay type: cell-based, human; conditions: 150 μg/ml, 48 hours
Procedure: Methods: AML cells (THP-1) were seeded at 0.5×10^6/well in 6-well plate and were treated with IL1RAP antibody or IgG control at 150 μg/ml for 48 hours. After 48 hours cells were collected, and expression of differentiation markers was monitored by flow cytometry. Cells were stained for CD14 (BD, cat: 325620) and CD15 (Thermo, cat: 17-01-59-42) differentiation markers and data were analyzed with FlowJo.

[2] = system: AML patient-derived leukemic cells; experiment: Jurkat-Lucia NFAT-CD16 ADCC reporter assay against AML patient-derived leukemic cells; assay type: cell-based, human
Source text: as §2

[3] = system: AML patient-derived samples; experiment: Colony formation of AML patient-derived samples, alone or with Azacitidine or Venetoclax; assay type: cell-based, human; conditions: 2 weeks
Procedure: Methods: Clonogenicity of AML patient-derived samples were assayed using STLX2012 alone or in combination with Azacitindine (Aza) or Venetoclax (Ven). AML patient-derived samples were plated in MethoCult media and cultured in the presence of STLX2012 (50 μg/mL) or control IgG1 antibody (50 μg/mL), plus or minus Azacitidine (100 nM) or Venetoclax (100 nM), for 2 weeks. Colony numbers were counted manually using an inverted microscope and normalized to the control IgG1 control.

[4] = system: IL36-induced downstream signaling (phospho-ERK, AKT, p38, NFκB) in HPAC, CAL33, 5637 cells; experiment: IL36 signaling in solid tumor cancer cells, Western blot; assay type: cell-based; conditions: IL36γ, antibody 20 μg/ml
Procedure: as §1

[5] = system: IL1-induced downstream signaling (phospho-NFκB) in K562 cells; experiment: IL1 signaling in CML (K562) cells, Western blot; assay type: cell-based, human; conditions: antibody 20 μg/ml, IL1β 100 ng/ml
Procedure: as §1

B1: 74804_12A21B: anti-IL1RAP mAb; VH SEQ ID NO:6, VL SEQ ID NO:23, κ light chain (antibody, V domains shown)
VH: QVQLLQSGAEVKKPGSSVKVSCKASGGTFSIYAIDWVRQAPGQGLEWMGGIIPIFGTANSAQKFQGRVTITADKSTSTAYMELSSLRSEDTAVYYCARNGATSDAFDMWGQGTMVTVSS
VL: EIVLTQSPGTLSLSPGERATLSCRASLSVSSNYLAWFQQRPGQAPRLLIHGVSRRATGIPDRFSGSGSGTDFTLTISRLEPEDFAVYYCQQYGSSPLTFGGGTKVEIK
modifications: 74804_12A21B VH and 74804_29D13A VH; 74804_12A21B VL
Inhibition of clonogenic capacity (colony formation) (AML patient samples): inhibited the clonogenic capacity
Inhibition of IL33 signaling (phosphorylation of ERK, p38 and NFκB) [1]: inhibited IL33 signaling in AML patient samples
ADCC activity (reporter) (THP-1 cells): showed ADCC activity
Expression of CD14 differentiation marker (AML cells (THP-1)): induced the expression
Expression of CD15 differentiation marker (AML cells (THP-1)): induced the expression
ADCC activity (reporter) [2]: showed ADCC activity
Colony numbers, combined with Azacitidine ([3]; STLX2012 50 μg/mL + Azacitidine 100 nM): Further reduction in colony numbers
Colony numbers, combined with Venetoclax ([3]; STLX2012 50 μg/mL + Venetoclax 100 nM): Further reduction in colony numbers
Colony numbers ([3]; STLX2012 50 μg/mL alone, vs control IgG1): decreased colony numbers in AML patient samples
Inhibition of IL36 signaling (phosphorylation of ERK, AKT, p38 and NFκB) [4]: Inhibition of IL36 signaling in solid tumor cancer cells
Inhibition of IL1 signaling (phosphorylation of NFκB) [5]: inhibited IL1 signaling in these CML (K562) cells
